B1: OKT3-PE labeled conjugate (Abcam Cat. No. ab86882) (antibody, mouse IgG2a, V domains shown)
VH: not shown
VL: QIVLTQSPAIMSASPGEKVTMTCSASSSVSYMNWYQQKSGTSPKRWIYDTSKLASGVPAHFRGSGSGTSYSLTISGMEAEDAATYYCQQWSSNPFTFGSGTKLEINR
modifications: PE (phycoerythrin) conjugate, site not stated
notes: Bought PE conjugate of OKT3; also called labeled OKT3
B2: VH2ala/Vκ2 humanized anti-CD3 mAb (antibody, V domains shown)
VH: QVQLVQSGSELKKPGASVKVSCKASGYTFTRYTMHWVRQAPGKGLEWIGYINPSRGYTNYNQKFKDRATITTDKSTSTAYMELSSLRSEDTAVYYCARYYDDHYALDYWGQGTLVTVSS
VL: QIVLTQSPATLSLSPGERATLSCSASSSVSYMNWYQQKPGKAPKRWIYDTSKLASGVPSRFSGSGSGTDYTLTISSLQPEDFATYYCQQWSSNPFTFGGGTKVEIKR
B3: VH2ser/Vκ2 humanized anti-CD3 mAb (antibody, V domains shown)
VH: QVQLVQSGSELKKPGASVKVSCKASGYTFTRYTMHWVRQAPGKGLEWIGYINPSRGYTNYNQKFKDRATITTDKSTSTAYMELSSLRSEDTAVYYCARYYDDHYSLDYWGQGTLVTVSS
VL: QIVLTQSPATLSLSPGERATLSCSASSSVSYMNWYQQKPGKAPKRWIYDTSKLASGVPSRFSGSGSGTDYTLTISSLQPEDFATYYCQQWSSNPFTFGGGTKVEIK
notes: Human IgG4 (Ser241Pro) / κ; also called VH2ser/Vκ2 mutant; VH2scr/VK2
B4: VH2val/Vκ2 humanized anti-CD3 mAb (antibody, V domains shown)
VH: QVQLVQSGSELKKPGASVKVSCKASGYTFTRYTMHWVRQAPGKGLEWIGYINPSRGYTNYNQKFKDRATITTDKSTSTAYMELSSLRSEDTAVYYCARYYDDHYVLDYWGQGTLVTVSS
VL: QIVLTQSPATLSLSPGERATLSCSASSSVSYMNWYQQKPGKAPKRWIYDTSKLASGVPSRFSGSGSGTDYTLTISSLQPEDFATYYCQQWSSNPFTFGGGTKVEIKR

Assays:
[1] = molecular target: T1, human cell-surface CD3 (Cluster of Differentiation 3) on Jurkat cells (human, UniProt P07766 23-207); test: direct binding by FACS, dilution series on 3×10^5 Jurkat cells
T1 construct: whole, on cells; CD3 is a complex of several chains; also called human CD3; CD3 T-cell-surface molecule

[2] = molecular target: T1, human cell-surface CD3 (Cluster of …); test: competition FACS on Jurkat cells; competitor OKT3-PE at 0.02 µg/mL

Binder	EC50 [1] [µg/mL]	IC50 [2] [µg/mL]
B1	0.02	–
B2	–	0.045
B3	–	0.041
B4	–	0.055

Reference: patent US20180244778A1 (THERAPIX BIOSCIENCES, published 2018)
